Test results reported in publication PMC5732959, “BnaA.bZIP1 Negatively Regulates a Novel Small Peptide Gene, BnaC.SP6, Involved in Pollen Activity”.

Experiments:
BnaA.bZIP1-His [1] = target: T1, BnaA.bZIP1-His (Brassica napus, UniProt A0A078IFD5 1-139); assay: EMSA; EMSA: 10 ul with 2 ul 5x EMSA/Gel-Shift Binding Buffer (Beyotime), 30 nM Cy5 probe, 30 min at 25 C; 6% native PAGE, 0.5x TBE pH 8.3, 4 C; details: protein: recombinant, tags: His, pET-32a fusion (N-terminal vector tag), blunt
T1 sequence: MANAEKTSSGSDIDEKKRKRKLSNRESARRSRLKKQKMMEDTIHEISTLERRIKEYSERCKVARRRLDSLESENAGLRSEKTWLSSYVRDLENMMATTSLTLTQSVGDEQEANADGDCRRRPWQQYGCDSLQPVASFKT

BnaA.bZIP1-His [2] = target: T1, BnaA.bZIP1-His; assay: competition; unlabeled probe at 200x, 400x, 800x reduces shift of Cy5-p59; EMSA: 10 ul with 2 ul 5x EMSA/Gel-Shift Binding Buffer (Beyotime), 30 nM Cy5 probe, 30 min at 25 C; 6% native PAGE, 0.5x TBE pH 8.3, 4 C; details: protein: recombinant; tags: His; pET-32a fusion (N-terminal vector tag); blunt

B1: p59 (dsDNA)
DNA 1: AACGAAAGCCACCTCACGTCGTGCTATTTTCGGTGTAACCTTAACGGTGGATCTTTAAA
DNA 2: TTTAAAGATCCACCGTTAAGGTTACACCGAAAATAGCACGACGTGAGGTGGCTTTCGTT
binding result (BnaA.bZIP1-His [1]; label: Cy5 (p59-CY5-F strand)): binds

B2: mp59 (dsDNA)
DNA 1: AACGAAAGCCACCTCTATGAGTGCTATTTTCGGTGTAACCTTAACGGTGGATCTTTAAA
DNA 2: TTTAAAGATCCACCGTTAAGGTTACACCGAAAATAGCACTCATAGAGGTGGCTTTCGTT
binding result (BnaA.bZIP1-His [1]; label: Cy5 (mp59-CY5-F strand)): no binding

B3: p59 unlabeled competitor (dsDNA)
DNA 1: AACGAAAGCCACCTCACGTCGTGCTATTTTCGGTGTAACCTTAACGGTGGATCTTTAAA
DNA 2: TTTAAAGATCCACCGTTAAGGTTACACCGAAAATAGCACGACGTGAGGTGGCTTTCGTT
binding result (BnaA.bZIP1-His [2]): binds
